Test [1] addresses sc9-10 DS-Cav1 N183GC, N428C S46G-N67I-E92D-S215P-K465Q (A2). The test can be described thus: BLI (Octet), antibody reactivity over time at 60 °C. Background: Biolayer interferometry detects binding as a change in optical thickness at a sensor tip.
For test [2], the target named is sc9-10 DS-Cav1 A149C, Y458C S46G-N67I-E92D-S215P-K465Q (A2). Described as above.
Test [3] concerns the target sc9-10 DS-Cav1 A149C, Y458C S46G-S215P-K465Q (A2). Described as above.
In test [4] the target is sc9-10 DS-Cav1 N183GC,N428C. The description is as above.
For test [5], the target named is sc9-10 A DS-Cav1 A149C, Y458C. The description is as above.
The target in test [6] is sc9-10 DS-Cav1 A149C, Y458C S46G-E92D-S215P-K465Q (A2). Described as above.
In test [7] the target is RSV F DS-Cav1 (human RSV subtype A (strain A2)) (UniProt P03420). The test is described as above.
The next test concerns the target sc9-10 Cav1only. The test can be described thus: ELISA after 1 week at 4 °C. In general terms: An ELISA detects its analyte on a solid surface through an enzyme-linked reagent.
The target of the next test is RSVF dFP. The test can be described thus: ELISA after 1 week at 4 °C.
In the next test the target is sc9-10 Cav1only 146-458. The test can be described thus: ELISA after 1 week at 4 °C.
For a further test, the target named is sc9-10 Cav1only 98-360. The test can be described thus: ELISA after 1 week at 4 °C.
Another test addresses sc9-10 Cav1only 98-361. The test can be described thus: ELISA after 1 week at 4 °C.
For the next test, the target named is sc9-10 Cav1only 100-361. The test can be described thus: ELISA after 1 week at 4 °C.
The next test has as its target sc9-10 Cav1only 98-362. The test can be described thus: ELISA after 1 week at 4 °C.
Another test has as its target sc9-10 Cav1only 99-362. The test can be described thus: ELISA after 1 week at 4 °C.
For a further test, the target named is RSVF Cav1only. The test can be described thus: ELISA after 1 week at 4 °C.
In the next test the target is sc9-10 Cav1only 99-360. The test can be described thus: ELISA after 1 week at 4 °C.
In another test the target is sc9-10 Cav1only 100-362. The test can be described thus: ELISA after 1 week at 4 °C.
The target in test [8] is sc9-10 A149C Y458C Long CAV1only. The test can be described thus: ELISA after 1 week at 4 °C.
The target in the next test is sc9-10 Cav1only 100-360. The test can be described thus: ELISA after 1 week at 4 °C.
A further test has as its target sc9-10 Cav1only 369-455. The test can be described thus: ELISA after 1 week at 4 °C.
Test [9] has as its target sc9-10 N183GC N428C Long CAV1only. The test can be described thus: ELISA after 1 week at 4 °C.
The target of test [10] is RSV F DS-Cav1 (human RSV subtype A (strain A2)) (UniProt P03420). The test can be described thus: ELISA after 1 week at 4 °C.
A further test concerns the target sc9-10 Cav1only 99-361. The test can be described thus: ELISA after 1 week at 4 °C.
Test [11] has as its target sc9-10 DS-Cav1 N183GC, N428C S46G-N67I-E92D-S215P-K465Q (A2). The test can be described thus: BLI (Octet), F on Ni-NTA tips, Fab in solution.
Test [12] addresses sc9-10 DS-Cav1 A149C, Y458C S46G-N67I-E92D-S215P-K465Q (A2). The test can be described thus: BLI (Octet), F on Ni-NTA tips, Fab in solution.
Test [13] concerns the target RSV F sc9-10 DS-Cav1 (human RSV subtype A (strain A2)). The test can be described thus: BLI (Octet), F on Ni-NTA tips, Fab in solution.
The next test deals with sc9 DS-Cav1-105Q. The test can be described thus: BLI (Octet), F on Ni-NTA tips, Fab in solution.
Test [14] deals with sc9-10 DS-Cav1 A149C, Y458C S46G-S215P-K465Q (A2). The test can be described thus: BLI (Octet), F on Ni-NTA tips, Fab in solution.
The target in the next test is sc11 DS-Cav1. The test can be described thus: BLI (Octet), F on Ni-NTA tips, Fab in solution.
Another test addresses sc8 DS-Cav1. The test can be described thus: BLI (Octet), F on Ni-NTA tips, Fab in solution.
Test [15] concerns the target sc9-10 DS-Cav1 N183GC,N428C. The test can be described thus: BLI (Octet), F on Ni-NTA tips, Fab in solution.
The target in test [16] is RSV F sc9-9 DS-Cav1 (human RSV subtype A (strain A2)) (UniProt P03420). The test can be described thus: BLI (Octet), F on Ni-NTA tips, Fab in solution.
Test [17] addresses sc9-10 A DS-Cav1 A149C, Y458C. The test can be described thus: BLI (Octet), F on Ni-NTA tips, Fab in solution.
The target of another test is sc9-19 DS-Cav1. The test can be described thus: BLI (Octet), F on Ni-NTA tips, Fab in solution.
The target of test [18] is sc9-10 DS-Cav1 A149C, Y458C S46G-E92D-S215P-K465Q (A2). The test can be described thus: BLI (Octet), F on Ni-NTA tips, Fab in solution.
The target of test [19] is sc9-10 DS-Cav1 Q98C, Q361C S46G-E92D-L95M-S215P-I217P-I221M-R429K-K465Q (Long (VR26)). The test can be described thus: BLI (Octet), F on Ni-NTA tips, Fab in solution.
For test [20], the target named is RSV F sc9 DS-Cav1 (human RSV subtype A (strain A2)). The test can be described thus: BLI (Octet), F on Ni-NTA tips, Fab in solution.
The target in test [21] is sc9-10 DS-Cav1 Q98C, Q361C L95M-I221M-R429K (B18537). The test can be described thus: BLI (Octet), F on Ni-NTA tips, Fab in solution.
The target of the next test is sc10 DS-Cav1. The test can be described thus: BLI (Octet), F on Ni-NTA tips, Fab in solution.
Test [22] deals with RSV F DS-Cav1 (human RSV subtype A (strain A2)) (UniProt P03420). The test can be described thus: BLI (Octet), F on Ni-NTA tips, Fab in solution.
For another test, the target named is sc9-24 DS-Cav1. The test can be described thus: BLI (Octet), F on Ni-NTA tips, Fab in solution.

pKd: −log10 of the molar value.

Usually pKd stands for the negative decadic logarithm of the Kd, by convention in mol/L. A high value points to a low Kd.

As to AM14 antibody, the T1/2 of AM14 reactivity at 60 °C amounted to 27.1 h in test [1]; 7.5 h in [2]; 6 h in test [3]; 33.8 h in test [4]; 7.8 h in [5]; 8.3 h in test [6]. The same substance gave a T1/2 of AM14 reactivity at 60 °C in test [7] of 1.4 h. Moreover, the ELISA signal (antigenicity) with sc9-10 Cav1only worked out at 3.31; in the test with RSVF dFP it was 0.05; with sc9-10 Cav1only 146-458, 0.102; in the test with sc9-10 Cav1only 98-360, 0.199; with sc9-10 Cav1only 98-361, 0.356; in the test with sc9-10 Cav1only 100-361 it was 0.0969. Also, the ELISA signal (antigenicity) with sc9-10 Cav1only 98-362 amounted to 0.516; with sc9-10 Cav1only 99-362, 0.805; with RSVF Cav1only, 2.81; with sc9-10 Cav1only 99-360, 0.0553; in the test with sc9-10 Cav1only 100-362, 0.0541; in test [8], 0.211. The ELISA signal (antigenicity) came out at 0.344 with sc9-10 Cav1only 100-360; 0.0785 in the test with sc9-10 Cav1only 369-455; 0.0514 in test [9]; 1.71 in test [10]; 2.64 in the test with sc9-10 Cav1only 99-361.
Regarding MPE8 (antibody), the T1/2 of MPE8 reactivity at 60 °C in test [1] turned out to be 35.1 h; in [2] it was 12.7 h; in test [3], 11.2 h; in [4], 48.3 h; in [5] it was 14.4 h; in test [6] it was 12.6 h. In test [7], this substance had a T1/2 of MPE8 reactivity at 60 °C of 2 h. Also, the ELISA signal (antigenicity) is 3.54 in the test with sc9-10 Cav1only; 2.77 with RSVF dFP; 1.85 with sc9-10 Cav1only 146-458; 0.734 with sc9-10 Cav1only 98-360; 1.4 in the test with sc9-10 Cav1only 98-361; 0.786 with sc9-10 Cav1only 100-361. Further, the ELISA signal (antigenicity) with sc9-10 Cav1only 98-362 was 0.845; in the test with sc9-10 Cav1only 99-362 it was 1.28; in the test with RSVF Cav1only, 3.08; in the test with sc9-10 Cav1only 99-360, 0.625; in the test with sc9-10 Cav1only 100-362, 0.298; in test [8], 2.5. For the same substance, the ELISA signal (antigenicity) turned out to be 1.28 in the test with sc9-10 Cav1only 100-360; 2.32 in the test with sc9-10 Cav1only 369-455; 0.228 in [9]; 2.16 in [10]; 2.66 with sc9-10 Cav1only 99-361.
Take AM22 (Fab): the pKd in [11] was 9.40; in test [12], 9.70; in test [13], over 11.00; with sc9 DS-Cav1-105Q, over 11.00; in [14], 9.30; with sc11 DS-Cav1, 8.80. Also, the pKd in the test with sc8 DS-Cav1 was 8.41; in test [15], 9.70; in test [16], 8.55; in [17], 10.00; with sc9-19 DS-Cav1 it was 10.22; in test [18], 9.52. The pKd was 10.00 in test [19]; over 11.00 in [20]; 10.00 in [21]; 9.52 with sc10 DS-Cav1; over 11.00 in [22]; 9.52 in the test with sc9-24 DS-Cav1.
Regarding 5C4 (Fab), the pKd in test [11] was 7.10; in test [12], 6.90; in test [13] it was 7.58; with sc9 DS-Cav1-105Q, 7.54; in test [14], 7.04; with sc11 DS-Cav1, 7.23. For the same substance, the pKd is 7.85 in test [15]; 7.75 in [16]; 7.49 in [17]; 7.65 with sc9-19 DS-Cav1; 6.50 in test [18]; 7.45 in test [19]. Moreover, the pKd in test [20] was 7.50; in test [21], 7.00; with sc10 DS-Cav1 it was 7.42; in [22], 7.89; with sc9-24 DS-Cav1 it was 7.68.
Regarding Mota (antibody), the ELISA signal (antigenicity) with sc9-10 Cav1only stood at 3.59; in the test with RSVF dFP, 3.42; with sc9-10 Cav1only 146-458 it was 1.95; with sc9-10 Cav1only 98-360, 1.04; with sc9-10 Cav1only 98-361 it was 2.24; with sc9-10 Cav1only 100-361 it was 2.8. In addition, the ELISA signal (antigenicity) with sc9-10 Cav1only 98-362 amounted to 0.828; with sc9-10 Cav1only 99-362, 1.38; with RSVF Cav1only, 3.35; in the test with sc9-10 Cav1only 99-360 it was 1.11; with sc9-10 Cav1only 100-362 it was 1.53; in [8], 2.55. The ELISA signal (antigenicity) with sc9-10 Cav1only 100-360 is 1.61; with sc9-10 Cav1only 369-455 it was 2.5; in test [9] it was 2.07; in test [10] it was 1.72; with sc9-10 Cav1only 99-361, 2.71.
For D25 antibody, the T1/2 of D25 reactivity at 60 °C in test [1] is 23.3 h; in test [2] it was 26.4 h; in [3] it was 23.4 h; in test [4], 42.4 h; in test [5] it was 16.5 h; in test [6], 26.7 h. In [7], this substance yielded a T1/2 of D25 reactivity at 60 °C of 3.2 h. The ELISA signal (antigenicity) in the test with RSVF dFP is 0.902; with sc9-10 Cav1only 98-360, 1.14; with sc9-10 Cav1only 99-360 it was 1.4; with sc9-10 Cav1only 100-360, 1.76; in [10], 2.13.

The values above are taken from patent US20190112340A1.
